Experimental data from patent US20100196361A1, “Method of inhibition of vascular development using an antibody” (DYAX CORP., priority 2003, published 2010).
“Also recorded” adds a separate entry of the source.

Tests used:
Type in all cases: binding
[1] = tested on: human platelets; assay: Flow cytometry on human platelets; conditions: total (CD42) and thrombin-activated (CD62) platelets
Protocol: To avoid platelet activation, human platelets were isolated from plasma of healthy donors using the platelet GelSep kit (Biocytex, Marseille, France) kit according to the guidelines of the manufacturer. Platelets were activated by the addition of thrombin to a final concentration of 0.8 U/ml. To distinguish activated from non-activated platelets double staining was performed with Tie1 antibodies/control antibodies and antibody CD42 (total platelets) or CD62 (activated platelets).
After preparation, platelets were resuspended in buffer 2 of the GelSep kit, 10% heat inactivated human serum (incubation buffer) and incubated for 1 hour. […] Platelets were spun down by centrifugation for 10 min at 611 g. Between incubations platelets were washed twice with Buffer 1 of the GelSep kit. Then, Strepatvidin-R-phycoerythrin together with anti-CD42-PercP or anti-CD62-PercP were incubated for 30 minutes at room temperature in incubation buffer After the last incubation and washing detection of bound antibodies was performed by means of flow cytometry on a FACSscan and Epics Altra (Becton Dickinson, Oxnard, Coulter,) and results analyzed. Cells were gated on SSC and anti-CD42-PercP for the total platelets in case non-activated platelets were used and on SSC and anti-CD62-PercP for the activated platelets. […]

[2] = biological target: T1, Tie1 (Homo sapiens, UniProt P35590); assay: Immunoprecipitation of Tie1 from HUVEC and platelet lysates; conditions: for immunoprecipitation of Tie1 from platelets: activated and inactivated platelets
T1 sequence (P35590 22-1138): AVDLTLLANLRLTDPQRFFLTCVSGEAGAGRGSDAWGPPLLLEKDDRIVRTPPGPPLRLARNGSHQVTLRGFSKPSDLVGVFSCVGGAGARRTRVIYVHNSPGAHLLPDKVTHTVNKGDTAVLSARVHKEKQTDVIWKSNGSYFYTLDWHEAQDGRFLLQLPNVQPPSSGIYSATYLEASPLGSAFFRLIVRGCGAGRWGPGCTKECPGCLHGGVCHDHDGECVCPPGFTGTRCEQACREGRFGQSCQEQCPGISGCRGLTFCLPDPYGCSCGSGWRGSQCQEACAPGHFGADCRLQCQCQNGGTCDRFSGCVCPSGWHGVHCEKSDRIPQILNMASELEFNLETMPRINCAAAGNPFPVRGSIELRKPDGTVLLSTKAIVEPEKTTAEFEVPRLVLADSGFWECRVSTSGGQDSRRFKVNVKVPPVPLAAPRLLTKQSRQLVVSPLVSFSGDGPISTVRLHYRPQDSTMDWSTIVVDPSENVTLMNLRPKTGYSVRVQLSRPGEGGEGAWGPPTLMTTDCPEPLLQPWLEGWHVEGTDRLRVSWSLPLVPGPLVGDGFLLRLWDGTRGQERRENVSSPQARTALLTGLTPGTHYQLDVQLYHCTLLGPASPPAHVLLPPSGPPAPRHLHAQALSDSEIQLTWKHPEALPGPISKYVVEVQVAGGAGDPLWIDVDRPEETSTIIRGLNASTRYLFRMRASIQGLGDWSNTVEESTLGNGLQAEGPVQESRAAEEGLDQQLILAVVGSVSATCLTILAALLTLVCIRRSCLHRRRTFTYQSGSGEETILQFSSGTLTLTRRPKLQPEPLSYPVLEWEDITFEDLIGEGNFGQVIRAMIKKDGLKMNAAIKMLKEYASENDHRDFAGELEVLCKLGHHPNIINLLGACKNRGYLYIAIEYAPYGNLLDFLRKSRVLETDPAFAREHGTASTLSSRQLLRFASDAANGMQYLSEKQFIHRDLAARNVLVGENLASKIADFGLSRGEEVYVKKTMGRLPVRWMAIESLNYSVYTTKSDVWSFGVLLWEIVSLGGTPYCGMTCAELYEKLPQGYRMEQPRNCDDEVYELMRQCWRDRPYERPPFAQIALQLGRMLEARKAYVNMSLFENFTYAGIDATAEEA
Protocol: The conclusion from this study was that platelets represent a large pool of Tie1 immunoreactivity which could present a problem for development of Tie1 as a therapeutic target. […] Both activated and inactivated platelets were tested. Anti-Tie1 antibodies B2, D11, E3, the goat polyclonal AF619 (R&D) and negative control antibodies anti-FITC and anti-Streptavidin were used. HUVECS were retrieved from culture dishes by trypsinization and platelets were prepared with the platelet GelSep kit (Biocytex, Marseille, France) kit according to the guidelines of the manufacturer. Per immunoprecipitation experiment 3-5×10^6 and 3×10^8 cells platelets were used for each antibody tested. Platelets and cells were washed with PBS and spun down at 1400 rpm for 4 minutes and supernatant was removed. Then cells were lysed in 1 ml lysis buffer containing 50 mM Tris HCL pH 7.5, 150 mM NaCl, 0.5% Deoxycholic acid (DOC) and 0.5% NP-40 for 5 minutes. The lysed cells were spin down for 10 minutes at 14.000 rpm and 5 μg/ml antibody was added to the supernatant and incubated at 4° C. on a rotator. 100 μl/sample protein A beads (Uppsala, Sweden) were washed 3 times with lysis buffer (centrifugation speed: 15 seconds, 2000 rpm) then cell lysates incubated with antibody were added for 30 minutes 4° C. Then beads were washed three times with washing buffer containing 50 mM Tris HCL pH 7.5, 400 mM NaCl, 0.5% DOC, 0.5% NP-40. Finally, beads are spun down and the pellets was resuspended in an equal amount in sample buffer to perform SDS-page and Western blotting. In Western blotting Tie1 was detected with the polyclonal goat anti-Tie1 antibody.
It has been reported that Tie1 is expressed on platelets (Tsiamis et al. (2000) J. Vasc. Res. 37(6):437). The possibility of platelet immunoreactivity with the E3 anti-Tie1 antibody was investigated by FACs analysis and immunoprecipitation studies. […] In addition, the effect of DX-2200 and DX-2210 on platelet agglutination and aggregation was investigated. […]

[3] = biological target: T1, Tie1; assay: Immunohistochemistry of matched tumor and normal tissue sections; conditions: frozen sections
Protocol: To evaluate the binding of E3 to Tie1 in primary tumor and normal tissue the antibody was produced as an IgG and biotin labeled. The E3 antibody and two other anti Tie1 antibodies B2 and D11 were reformatted as full length IgG molecules. Nucleic acids encoding these IgGs were transiently transfected into HEK293T cells. Plasmid preparations for transient cell transfections were performed using the HP-[…]™ MIDI prep kit (Sigma, cat. no. NA0200). HEK293T cells (GenHunter Corp. cat. no. Q401) were seeded 24 hours before transfection; 6×10^6 cells were plated per 10-cm culture dish. Transfections were carried out using LIPOFECTAMINE™ 2000 reagent (Invitrogen, cat. no. 11668019) following the manufacturer's instructions. Five micrograms of plasmid DNA was used per 10-cm dish. Cells were cultured in DMEM (Invitrogen, cat. no. 31966021) supplemented with 10% “ultra-low IgG” fetal calf serum (Invitrogen, cat. no. 16250078), at 37° C., 5% CO2, in a water saturated atmosphere. Conditioned media were harvested 72 hours and 144 hours after transfection, pooled and sterile filtered.
The Tie1 antibodies were biotinylated using the EZ-link Sulfo-NHS-SS-Biotin (Pierce, Cat. 21331). For Tie1/Fc and Tie1-His, the reaction was performed for 2 hours on ice in 50 mM sodium carbonate buffer, pH 9.6, in the presence of a 5-fold molar excess of biotinylating agent. For the antibodies, the reaction was performed for 2 hours on ice in PBS, in the presence of a 15-fold molar excess of EZ-link Sulfo-NHS-SS-Biotin. The reaction was stopped by the addition of Tris-HCl, pH 7.5 (50 mM final concentration) followed by a 1-hour incubation on ice. Samples were then dialyzed against PBS.
Various normal and tumor tissue sections were stained with biotinylated antibodies. A mouse monoclonal anti-Tie1 antibody (7e8) (Alitalo laboratory, University of Helsinki) was used as a positive control. Sections without primary antibody served as negative control. All samples were fresh frozen tissues and staining was performed with the TSA-kit (Perkin-Elmer Life Sciences). After acetone fixation (10-20 min, −20° C.) the slides were treated with 0.73% H2O2 for 10 min to reduce endogenous peroxidase activity followed by blocking for 30 min with TNB buffer. Sections ([…] thick) were incubated with primary antibodies (10 μg/ml) overnight at 4° C. Sections with the mouse monoclonal anti-tie1 antibody (7e8) were treated with biotinylated anti-mouse antibodies (VectaStain) before the addition of streptavidin-HRP. Signal was amplified by using a TSA kit and the visualized by AEC (235 ml NaAc,15 ml AEC (stock solution: 1600 mg 3-amino-9-ethyl-carbazole and 480 ml N-dimethylformamide), 250 μl H2O2).

B1: E3: human anti-Tie1 antibody from phage Fab library, reformatted as IgG; HC variable SEQ ID NO:114, LC variable SEQ ID NO:116 (antibody, V domains shown)
VH: EVQLLESGGGLVQPGGSLRLSCAASGFTFSMYGMVWVRQAPGKGLEWVSVISPSGGNTGYADSVKGRFTISRDNSKNTLYLQVNSLRAEDTAVYYCARAPRGYSYGYYYWGQGTLVTVSSASTKGPSVFPLAPSSKSTSGG
VL: DIQMTQSPLSLSASVGDRVTITCRASQGIGHYLAWYQQKPGKVPKLLIYTASTLQSGVPSRFSGSGSGTDFTLTINSLQPEDVATYYCQQFNSYPHTFGQGTRLDIK
modifications: IgG constant regions; Synthetically generated peptide
- binding to platelets [1]: Only a background number of CD42 positive cells are labeled; also recorded: no significant binding to total platelets, nor to activated platelets
- binding to platelets ([1]; listed as DX-2200): did not show significant binding to platelets
- immunoprecipitation of Tie1 from HUVEC ([2]; 5 μg/ml antibody, detection with polyclonal goat anti-Tie1): able to immunoprecipitate Tie1 in HUVEC
- immunoprecipitation of Tie1 from platelets [2]: not in platelets
- immunoprecipitation of Tie1 from platelets ([2]; listed as DX-2200): nor did it immunoprecipitate Tie1 from platelet extracts
- staining of breast (mammary tissue) ([3]; 10 μg/ml): brightest staining in the veins and capillaries of the mammary tissue
- staining of breast carcinoma ([3]; 10 μg/ml): stained also other structures in addition to vessels
- staining of hypernephroma tissue ([3]; 10 μg/ml): clear staining
- staining of kidney ([3]; 10 μg/ml): stained kidney tubules in addition to the vessels
- staining of lung carcinoma ([3]; 10 μg/ml): stained structures other than vessels
- staining of melanoma tissue ([3]; 10 μg/ml): also stained other surrounding structures
- staining of normal lung ([3]; 10 μg/ml): stained especially clearly the large veins in the lung
- staining of normal skin ([3]; 10 μg/ml): stained blood vessels very faintly
- tissue specificity of vessel staining in normal tissues ([3]; biotinylated antibody 10 μg/ml): stained vessels in the lung and kidney but not in the skin
